System: MS2 coat protein
Test: apparent KD of MS2 coat protein; designed switch direction (-1 OFF switch, 1 ON switch): -1; higher = weaker reporter binding
Method in brief: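 On Illumina chips, designed RNA switches with common flanks were made by stalled E. coli RNA polymerase. Titrations with SNAP-549-labelled MS2 coat protein, doubling from 0.7 or 1.5 nM to 3 µM, were done with no input, with 200 uM small-molecule ligand, or with an oligonucleotide input. Apparent KD is the median per design over clusters, from curve fits of normalised cluster fluorescence.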

[1] = input ligand: microRNA oligo, concentration not stated
[2] = Eterna round: R95, input ligand: microRNA oligo, concentration not stated

CAAAACACUGGAGGAUAUUGGAAAGGAAGUGUACAAGAAGGCCAGCUCUAACAUGAGGAUCACCCAUGUCCAGGGCAUGGGCAA [PowerStrip EXNG 1.12] (Eterna round: R96, puzzle: Exclusion NG 1)
apparent KD of MS2 coat protein (input ligand: FMN 200 uM): 31.8 nM | apparent KD of MS2 coat protein [1]: 19.9 nM | apparent KD of MS2 coat protein (input ligand: none): 11.7 nM

CACUGGACAGGAUAUGUUCUUGAGCACUUGAGGAUCACCCAAGUCAUCAAGAACUCAGGCACAGAAGGGUUUAUGU [salish99_ex5_r4_014] (Eterna round: R97, puzzle: Exclusion 5)
apparent KD of MS2 coat protein (input ligand: FMN 200 uM): 44.5 nM | apparent KD of MS2 coat protein (input ligand: none): 15.8 nM

AGAUGGCGAGGAUAUACAUGAGGAUCACCCAUGUGAGAGAAAAGAGUGAGGAAGAAAAGUAGAAGGCGCUGUCA [Mat - Exclusion 3 - Mod of Salish D17] (puzzle: Exclusion 3)
apparent KD of MS2 coat protein [2]: 71 nM

AGCAUGCUAGGAUAUACGAAACAUUAGGGUUCGUCGUAUGAACAUGAGGAUCACCCAUGUAGAAGGAGCGUGCA [Mat - Exclusion 2 - Mod of Hyphema - D95] (puzzle: Exclusion 2)
apparent KD of MS2 coat protein [2]: 17.9 nM

UUGAUGUGAGGAUAUGUGAUCUGCCUUCUAUAUAGAUGAUUACAGAAGGCACAUGAGGAUCACCCAUGUAGAUC [Ex4 - 3 - 24] (puzzle: Exclusion 4)
apparent KD of MS2 coat protein [2]: 49.2 nM

UGUUGUUACGCAGGAUAUGUAUGAGGAUCACCCAUUAAUAAAUUUUAACCACGAGGAUCACCCGUGUAGAAGGGCGGGUUAACA [pwkr exNG2 2xF5 1xFMN.13] (Eterna round: R96, puzzle: Exclusion NG 2)
apparent KD of MS2 coat protein (input ligand: FMN 200 uM): 96.3 nM | apparent KD of MS2 coat protein [1]: 65 nM | apparent KD of MS2 coat protein (input ligand: none): 105 nM

GCAGCGUAUGUAGGAUAUCGGUCAGUUUCUGAUCGAGAAGGACAUGAGGAUCACCCAUGUAAAUUACCGUCUUUGACGGGCUGC [JL ENG1 3.68] (Eterna round: R96, puzzle: Exclusion NG 1)
apparent KD of MS2 coat protein (input ligand: FMN 200 uM): 20.5 nM | apparent KD of MS2 coat protein [1]: 14.1 nM | apparent KD of MS2 coat protein (input ligand: none): 18.1 nM

GCAAUUUCAAAGGAUAUACCUAAUUAACUAUCGGUAGAAGGUUGGACAUGAGGAUCACCCAUGUGCUCACACUU [Eternabot (L2) Solution 67] (Eterna round: R97, puzzle: Exclusion 6)
apparent KD of MS2 coat protein (input ligand: FMN 200 uM): 15.9 nM | apparent KD of MS2 coat protein (input ligand: none): 15.6 nM

GUGAGGCCAGUGAGGAUAUGUGUACAACUACGUGCAUAGAAGGCACAUGAGGAUCACCCAUGUGAAUUCCCAGG [Eternabot (L1) Solution 65] (Eterna round: R97, puzzle: Brourd's mod of Exclusion 4)
apparent KD of MS2 coat protein (input ligand: FMN 200 uM): 14.7 nM | apparent KD of MS2 coat protein (input ligand: none): 14.4 nM

CGUGUGUGAGGAUAUGACAAUGGUAUCUUCGGAUACCAUUGUCAGAAGGUACAUGAGGAUCACCCAUGUAGAUC [Exclusion 4 - Mod Brourd Ex 4-3: 20 v.2] (puzzle: Exclusion 4)
apparent KD of MS2 coat protein [2]: 35.6 nM

AAGUACCGGUGAGGAUAUUUUUAAUAGAGCUUUAUGAUAUACAUGAGGAUCACCCAUGUUACGUUAAAGAAGGCAUCGGAUUAA [Mat - Exclusion NG 2 - Mod of JL - D97] (Eterna round: R96, puzzle: Exclusion NG 2)
apparent KD of MS2 coat protein (input ligand: FMN 200 uM): 16.1 nM | apparent KD of MS2 coat protein [1]: 13.7 nM | apparent KD of MS2 coat protein (input ligand: none): 19.3 nM

GGCAUGCAAGGAUAUACUUACAGUGAUGUUCGAAUAAGGCUACUUGAGGAUCACCCAAGUAGAAGGUGCAUGCC [Exclusion 2 (Mod JL EX2 4.74 Vienna UCT mod of Mamaed)] (Eterna round: R97, puzzle: Exclusion 2)
apparent KD of MS2 coat protein (input ligand: FMN 200 uM): 203 nM | apparent KD of MS2 coat protein (input ligand: none): 26.8 nM

AAUAUUUUAGGAUAUGGCGGAAUAGACAUGAGGAUCACCCAUGUUAGAGGCGUGGUGAAGUUAGAAGGGAGGUGUU [Eternabot (L1) Solution 6] (Eterna round: R97, puzzle: Exclusion 5)
apparent KD of MS2 coat protein (input ligand: FMN 200 uM): 60 nM | apparent KD of MS2 coat protein (input ligand: none): 113 nM

UACAUGAGGAUCACCCAUGUUUUGUCGUGUAUGGUAUUUAUCUAGGAUAUCAAUUUAUUUAAUUAUGAGAAGGAGAAUAUUAAU [JMF's solution 21] (Eterna round: R96, puzzle: Exclusion NG 3)
apparent KD of MS2 coat protein (input ligand: FMN 200 uM): 36.3 nM | apparent KD of MS2 coat protein [1]: 27.7 nM | apparent KD of MS2 coat protein (input ligand: none): 34.7 nM

AACGUGGCUUAGGAUAUUGCUACGCAAAAGUAACAAGAAGGAGGCACAUGAGGAUCACCCAUGUGAUUCGUUGA [Ineror] (puzzle: Exclusion 6)
apparent KD of MS2 coat protein [2]: 14.8 nM

GACCAGCUAGGAUAUACAUGAGGAUCACCCAUGUGCAUUAAAGGGCUGGGUGACCCGCGUAGAAGGAGCGGGUC [Ustieded] (Eterna round: R97, puzzle: Exclusion 3)
apparent KD of MS2 coat protein (input ligand: FMN 200 uM): 13.9 nM | apparent KD of MS2 coat protein (input ligand: none): 14.5 nM

CCGCAAAUGGAGGAUAUCGUAUCGGAGACGAUACGAGAAGGCCAAACAUGAGGAUCACCCAUGUGUCCUAGCGG [Mat - Exclusion 6 - Eli Mod - D102] (puzzle: Exclusion 6)
apparent KD of MS2 coat protein (Eterna round: R95, input ligand: FMN 200 uM): 29.3 nM | apparent KD of MS2 coat protein [2]: 15.1 nM | apparent KD of MS2 coat protein (Eterna round: R95, input ligand: none): 16 nM

CUGAGCUGAGGAUAUACAUGAGGAUCACCCAUGUGAAGUAGCUUGCGUACAGGCAGAUGUAGAAGGCAGUUCGG [JL-ex3-3.31 Brourd mod] (puzzle: Exclusion 3)
apparent KD of MS2 coat protein [2]: 34.6 nM

AUAAGUAUAUAGGAUAUCUAGCUGGAUACAGCUAGAGAAGGAUGUACAUGAGGAUCACCCAUGUAAAUCUCAAU [Ex6/12-A1] (Eterna round: R97, puzzle: Exclusion 6)
apparent KD of MS2 coat protein (input ligand: FMN 200 uM): 18.7 nM | apparent KD of MS2 coat protein (input ligand: none): 15.1 nM

UUUUACAAGCUUAGAUCCUACAUGAGGAUCACCCAUGUGGUCCGGUGACGUGAGUCACCGGACUAAGCUCGUCUUGU [JL TOV1 3.71] (Eterna round: R97, puzzle: Sensor, turn-off variant 1)
apparent KD of MS2 coat protein (input ligand: FMN 200 uM): 124 nM | apparent KD of MS2 coat protein (input ligand: none): 114 nM

UUAUAUAGAGUGAGGAUAUGCUGGUCCUUGGAUCAGCAGAAGGCACAUGAGGAUCACCCAUGUAAAAUAAUAUU [Mat - Exclusion 4 - JL Mod - D39] (puzzle: Brourd's mod of Exclusion 4)
apparent KD of MS2 coat protein [2]: 21.1 nM

CGAUGAGGAGUGAGGAUAUCGUGUUCGAAAGAACGUGAGAAGGCACAUGAGGAUCACCCAUGUGAUCCUUGUCG [Omei Ex4B A9] (Eterna round: R97, puzzle: Brourd's mod of Exclusion 4)
apparent KD of MS2 coat protein (input ligand: FMN 200 uM): 57.2 nM | apparent KD of MS2 coat protein (input ligand: none): 30.4 nM

GUGUGUUGAUUAGGAUAUGCUCUAAGCAAUCGGGCAGAAGGAGUUAGACAUGAGGAUCACCCAUGUAAAUAUCGGAUCCCAACG [Eternabot solution 17] (Eterna round: R96, puzzle: Exclusion NG 1)
apparent KD of MS2 coat protein (input ligand: FMN 200 uM): 18.6 nM | apparent KD of MS2 coat protein [1]: 16.2 nM | apparent KD of MS2 coat protein (input ligand: none): 19.3 nM

GAAAACGCAGAGGAUAUUCCAGAUCUAAGCUGCGAAGAAGGCUGCACAUGAGGAUCACCCAUGUGGUCUUUAAA [Maoned] (Eterna round: R96, puzzle: Exclusion 6)
apparent KD of MS2 coat protein [1]: 13.7 nM

CAGUACUGAGGAUAUACAUGAGGAUCACCCAUGUGUUCCAGCUAGGAGACUAGCAAAAGUAGAAGGCAGUACUG [salish99_ex3_r3_074] (Eterna round: R96, puzzle: Exclusion 3)
apparent KD of MS2 coat protein (input ligand: FMN 200 uM): 523 nM | apparent KD of MS2 coat protein [1]: 20 nM | apparent KD of MS2 coat protein (input ligand: none): 25.1 nM

CGAUGCUCGUGUCCACAUGAGGAUCACCCAUGUCGAGUUAGCGAGGAUAUCGGUAGCACAUAGCACGAGAAGGCGCGAACCUGA [Ex NG3 #28] (Eterna round: R96, puzzle: Exclusion NG 3)
apparent KD of MS2 coat protein (input ligand: FMN 200 uM): 58.4 nM | apparent KD of MS2 coat protein [1]: 15.9 nM | apparent KD of MS2 coat protein (input ligand: none): 22 nM

AGCAGACGAGGAUAUGAUCAAUAAUACAUGAGGAUCACCCAUGUAAUACUGAUCCAUGGAUCAGAAGGCGUCUGCU [E5/5-A1] (Eterna round: R97, puzzle: Exclusion 5)
apparent KD of MS2 coat protein (input ligand: FMN 200 uM): 23.5 nM | apparent KD of MS2 coat protein (input ligand: none): 16.4 nM

CUGGAUAGAGGAUAUUGUACUGCUGACAUGAGGAUCACCCAUGUAUGUUAACUCGGCCGUCGAGAAGGCUAACAAA [BotMod 14 - Jieux - Exclusion 5] (Eterna round: R97, puzzle: Exclusion 5)
apparent KD of MS2 coat protein (input ligand: FMN 200 uM): 16.3 nM | apparent KD of MS2 coat protein (input ligand: none): 33.4 nM

AAUCAGCGAGGAUAUACAGAUUCUGGGUGCGGCUCGGCGAGACAUGAGGAUCACCCAUGUAGAAGGUGCUAGCC [Teoredre] (puzzle: Exclusion 2)
apparent KD of MS2 coat protein [2]: 29.2 nM

GUUAGUUAAGGAUAUACUGGGAGCUGCGGCGUCUCGCCGCAACAUGAGGAUCACCCAUGUAGAAGGUGGCCAUU [JL ViennaUCT Enbibi mod 4] (puzzle: Exclusion 2)
apparent KD of MS2 coat protein [2]: 640 nM

GCGCGAAGCAAGGAUAUCCCAGGGAGCUCCCUGGGAGAAGGUGCCACAUGAGGAUCACCCAUGUGGUGAUCCUG [eternacac ex6r4 sub16] (Eterna round: R97, puzzle: Exclusion 6)
apparent KD of MS2 coat protein (input ligand: FMN 200 uM): 25.6 nM | apparent KD of MS2 coat protein (input ligand: none): 17.7 nM

AUAAUGUAAGGAUAUCAGUCGUACAGCCUCGGCUGUACGACUGAGAAGGUACAUGAGGAUCACCCAUGUGAUCA [E4/8-A2] (Eterna round: R97, puzzle: Exclusion 4)
apparent KD of MS2 coat protein (input ligand: FMN 200 uM): 98.4 nM | apparent KD of MS2 coat protein (input ligand: none): 1200 nM

UUUACAAGCUUUAGAUCCCACAUGAGGAUCACCCAUGUUGCUGCCGGUGACGGUAGCAUAACUAAUGCUCGUCUUAU [JL TOV1 3.62] (Eterna round: R97, puzzle: Sensor, turn-off variant 1)
apparent KD of MS2 coat protein (input ligand: FMN 200 uM): 123 nM | apparent KD of MS2 coat protein (input ligand: none): 235 nM

CUGUACAUAGGAUAUAGUUGUUUUUACAUGAGGAUCACCCAUGUUACUCCUCUCUCUCUUCUAGAAGGAUGUUUUU [JR_E5_Sub007] (Eterna round: R96, puzzle: Exclusion 5)
apparent KD of MS2 coat protein (input ligand: FMN 200 uM): 70.7 nM | apparent KD of MS2 coat protein [1]: 50.7 nM | apparent KD of MS2 coat protein (input ligand: none): 67 nM

CAGAACUGAGGAUAUACAUGAGGAUCACCCAUGUGUUCCAGCUAGGAGACUAGCAUAUGUAGAAGGCAGUUCUG [Mat - Exclusion 3 - JL Mod - D11] (Eterna round: R97, puzzle: Exclusion 3)
apparent KD of MS2 coat protein (input ligand: FMN 200 uM): 587 nM | apparent KD of MS2 coat protein (input ligand: none): 359 nM

Source: the supplement of paper PMC9170038
